Assay results taken from patent US10287317B2, “Proprotein convertase subtilisin kexin type 9 (PCSK9) allosteric binding ligands to modulate serum low density lipoprotein (LDL) levels” (SRX Cardio, LLC, priority 2013, dated 2019).
Where no end group is shown, it is not given here.

Experiments:
normal PCSK9 (WT) = normal PCSK9 (WT) (Homo sapiens, UniProt Q8NBP7); test: Cellular diI-LDL uptake in FL-83B cells with WT PCSK9; assay type: cell-based, mouse; details: FL83B, WT 1.2 ug/ml, pre-incubated 3 hrs at 37 C, dose dependent manner (FIG. 7)
Protocol: After 16 h, dil-LDL (5 ug/ml) was added to the incubation mixtures. After 4 h, fluorescence was measured (Ex: 520 nm/Em: 575 nm; cutoff: 550 nm). Dil-LDL uptake is calculated as RFU corrected for the number of cells. The PCSK9 and −/+SRX55 [SEQ ID NO: 2] mixtures were pre-incubated for 3 hrs at 37 C prior to addition to the cells.
LDL internalization was measured by uptake of a fluorescently tagged LDL molecule (diI-LDL) in the absence of exogenous PCSK9 (Cnt), in the presence of exogenous PCSK9 (normal PCSK9=WT, D374Y mutant PCSK9=DY), or in the presence of PCSK9 and a tested peptide (indicated as SRX##, or SRX if a single peptide results is shown in a graph). […]
Peptide activity was assessed by culturing cells with: i) no SRX peptide/PCSK9 protein complex (control, Cnt); ii) PCSK9 protein; and iii) SRX peptide/PCSK9 complex. […]
Cells were cultured using one of the combinations of conditions described in the preceding paragraph for 16 hours. After 16 hours, a quantity of diI-LDL (Low density lipoprotein coupled with 1,1′-dioctadecyl-3,3,3′,3′-tetramethylindocarbocyanine perchlorate) needed to bring the media concentration to 5 ug/mL of diI-LDL was added to the culture well and cells continued to be cultured under these new conditions for 4 additional hours. […] Fluorescence of the diI-LDL in the specimens were quantified using excitation at 530 nm and resulting emission at 580 nm. […]

PCSK9-WT protein = target: T1, PCSK9-WT protein (Homo sapiens, UniProt Q8NBP7); test: FACS analysis of cell surface LDLR in HuH7 cells with PCSK9-WT; assay type: cell-based
T1 construct: V5
Protocol: HuH7 cells were incubated for 18 h in the absence (Cnt) or presence of 0.75 μg/ml PCSK9-WT protein alone (WT) or mixed with 100 μM of various SRX peptides. The level of LDLR at the cell surface was measured by FACS using anti human LDLR Ab and a suitable secondary Ab labeled with Alexa 647. Cell surface LDLR is reported relative to Cnt. % inhibition of activity was calculated as [SRX−WT]/[Cnt−WT]×100%.
See, FIG. 1. In that experiment, the LDLR levels of a hepatocyte culture model (HuH7 cells) were measured by fluorescence activated cell sorting (FACS) in accordance with Example III. Cell surface LDLR is reported as a percentage of Basal levels of LDLR, indicated by the Cnt_Amm.Bic, Cnt_Ac.Acid, and Cnt bars in the top graph. See, FIG. 1 (top panel). LDLR levels in the presence of exogenous PCSK9 is indicated as WT_Amm.Bic, WT-Ac.Acid, and WT, and Exogenous PCSK9 in combination with a tested peptide is indicated as SRX##. The measured LDLR levels are reported as % versus basal controls (Cnt) of the respective group. […] This was further shown a percent inhibition (% inhibition was calculated as [SRX−WT]/[Cnt−WT]×100%) where positive modulation (increase) of LDLR level is reported as positive % inhibition, and negative modulation (decrease) of LDLR level is reported as negative % inhibition. See, FIG. 1 (bottom panel).
Benjannet et al., “Effects of the prosegment and pH on the activity of PCSK9: evidence for additional processing events” J Biol Chem. 285(52): 40965-40978 (2010). The cells were then washed 3× with solution A (calcium/magnesium-free Dulbecco's PBS (Invitrogen) containing 0.5% bovine serum albumin (Sigma) and 1 g/liter glucose)). The cells were then incubated for 10 min at room temperature with 1× Versene solution (Invitrogen) followed by the addition of 5 ml of solution A. The cells were then incubated for 40 min in solution A containing a human LDLR mAb-C7 (1:100; Santa Cruz Biotechnology). Following washes, the cells were then incubated for 20 min in solution A containing a secondary antibody (Alexa Fluor 647 donkey anti-mouse antibody; 1:250; Molecular Probes).
Following suspension in PBS containing 0.2% of propidium iodide, the cells were analyzed by FACS for both propidium iodide (dead cells) and LDLR in live cells with Alexa Fluor 647 using the FACS BD LSR (BD Biosciences).

T1 sequence (Q8NBP7 153-692): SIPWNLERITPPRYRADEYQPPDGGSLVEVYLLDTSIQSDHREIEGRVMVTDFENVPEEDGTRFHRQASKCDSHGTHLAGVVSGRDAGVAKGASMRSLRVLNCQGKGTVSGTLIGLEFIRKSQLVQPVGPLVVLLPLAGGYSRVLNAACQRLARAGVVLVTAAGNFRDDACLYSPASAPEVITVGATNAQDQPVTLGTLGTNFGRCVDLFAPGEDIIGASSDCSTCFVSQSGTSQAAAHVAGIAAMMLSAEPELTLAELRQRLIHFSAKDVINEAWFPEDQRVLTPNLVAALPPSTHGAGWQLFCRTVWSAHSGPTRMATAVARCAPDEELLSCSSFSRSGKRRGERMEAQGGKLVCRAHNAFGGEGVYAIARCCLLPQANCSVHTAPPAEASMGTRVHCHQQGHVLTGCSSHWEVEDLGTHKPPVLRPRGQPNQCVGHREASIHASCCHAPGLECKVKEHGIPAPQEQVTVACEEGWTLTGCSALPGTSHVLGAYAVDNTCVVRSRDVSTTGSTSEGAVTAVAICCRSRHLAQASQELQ
Chain of normal PCSK9 (WT) (Q8NBP7 153-692): as above

## Val-Tyr-Val-Arg-Phe-Trp (VYVRFW; not fully specified (C-terminus); printed as Val-Tyr-Val-Arg-Phe-Trp) [Compound 1]
Normal PCSK9 (WT)
  LDL internalization (dil-LDL % uptake vs Cnt): positively modulated (increased)
PCSK9-WT protein; HuH7 cells, FACS, exogenous WT PCSK9 plus peptide (FIG. 1, 100 μM)
  modulation of LDLR cell surface level: positively modulate (increase)
PCSK9-WT protein; WT PCSK9, FACS in HuH7 cells
  increase of cell surface expression of LDL-R: 100%
